Results: paper PMC7806473
Values joined by “and” are separate entries in the source; they are usually repeats but may differ in a detail not shown here. Equal values may be shown once.

Assays:
[1] = biological target: T1, bovine alpha-lactalbumin (α-LA), calcium-depleted (bovine), P00711; assay: AUC; sedimentation velocity, 50,000 rpm, 20 °C, absorbance at 280 nm, c(s) continuous distribution analysis with SEDFIT; conditions: remark: other sources report otherwise
T1 chain: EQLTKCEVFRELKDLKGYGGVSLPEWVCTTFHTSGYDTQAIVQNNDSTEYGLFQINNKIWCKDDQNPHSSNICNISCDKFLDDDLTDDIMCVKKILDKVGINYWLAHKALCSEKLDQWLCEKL

[2] = biological target: T1, bovine alpha-lactalbumin (α-LA), …; assay: MALDI-TOF-MS; 1:1 v/v mixture of 0.1% aqueous trifluoroacetic acid MALDI matrix and 50 mM sinapinic acid ionization matrix; conditions: remark: other sources report otherwise

B1: bovine alpha-lactalbumin (α-LA), calcium-depleted, P00711 20-142 (natural protein)
chain: EQLTKCEVFRELKDLKGYGGVSLPEWVCTTFHTSGYDTQAIVQNNDSTEYGLFQINNKIWCKDDQNPHSSNICNISCDKFLDDDLTDDIMCVKKILDKVGINYWLAHKALCSEKLDQWLCEKL
- stoichiometry N [1]: 2 and 3
- stoichiometry N [2]: 2 and 3 and 4
